Data on 2 substances can be found in US20240261333A1, “NOVEL TARGETS FOR ENHANCING ANTI-TUMOR IMMUNITY” (THE BROAD INSTITUTE, INC., priority 2021, published 2024).

The target in one experiment is RPL30 (human) (UniProt P62888). Put plainly: co-IP/MS, anti-FLAG IP of C-FLAG B3GNT2 cell lysate.
The next experiment concerns the target FAM3C (human) (UniProt Q92520). Described as above.
The target of a further experiment is FKBP10 (human) (UniProt Q96AY3). Described as above.
A further experiment concerns the target SQSTM1 (human) (UniProt Q13501). The description is as above.
The target of another experiment is IPO4 (human) (UniProt Q8TEX9). The description is as above.
The next experiment deals with DNAJA1 (human) (UniProt P31689). The experiment is described as above.
For a further experiment, the target named is HSD17B12 (human) (UniProt Q53GQ0). The description is as above.
For a further experiment, the target named is PRDX1 (human) (UniProt Q06830). The experiment is described as above.
In a further experiment the target is RPS9 (human) (UniProt P46781). The experiment is described as above.
In another experiment the target is ERLIN2 (human) (UniProt O94905). The experiment is described as above.
Another experiment deals with CAPZB (human) (UniProt P47756). The description is as above.
The next experiment addresses ERLIN1 (human) (UniProt O75477). The experiment is described as above.
In a further experiment the target is ATP1A1 (human) (UniProt P05023). Described as above.
The next experiment concerns the target RPS5 (human) (UniProt P46782). The description is as above.
A further experiment deals with RPS3A (human) (UniProt P61247). Described as above.
For the next experiment, the target named is RPL24 (human) (UniProt P83731). The experiment is described as above.
For another experiment, the target named is RPS15 (human) (UniProt P62841). The experiment is described as above.
For another experiment, the target named is GCN1 (human) (UniProt Q92616). The experiment is described as above.
Another experiment deals with CALU (human) (UniProt O43852). Described as above.
The next experiment addresses CASP14 (human) (UniProt P31944). The description is as above.
Another experiment has as its target RPL23A (human) (UniProt P62750). The description is as above.
For another experiment, the target named is PRDX2 (human) (UniProt P32119). Described as above.
A further experiment has as its target RPL12 (human) (UniProt P30050). The description is as above.
The target of a further experiment is RPL14 (human) (UniProt P50914). The description is as above.
A further experiment concerns the target CKAP4 (human) (UniProt Q07065). The description is as above.
Another experiment concerns the target UQCRC2 (human) (UniProt P22695). Described as above.
For a further experiment, the target named is PDIA6 (human) (UniProt Q15084). The description is as above.
The target in another experiment is RPLPO (human) (UniProt P05388). Described as above.
For another experiment, the target named is EIF5B (human) (UniProt O60841). The experiment can be described thus: co-IP, IgG control, lysate of cells with C-FLAG B3GNT2; mass spectrometry.
In a further experiment the target is KRT6B (human) (UniProt P04259). The description is as above.
For a further experiment, the target named is FUBP3 (human) (UniProt Q96I24). Described as above.
In a further experiment the target is HADHB (human) (UniProt P55084). The experiment is described as above.
Another experiment concerns the target ATXN2 (human) (UniProt Q99700). The description is as above.
For the next experiment, the target named is KRT4 (human) (UniProt P19013). Described as above.
Another experiment addresses RBM39 (human) (UniProt Q14498). Described as above.
The next experiment has as its target HNRNPA2B1 (human) (UniProt P22626). Described as above.
The target of a further experiment is DNAJC3 (human) (UniProt Q13217). The description is as above.
DNAJC3 (human), sequence (Q13217 32-504 limits assumed): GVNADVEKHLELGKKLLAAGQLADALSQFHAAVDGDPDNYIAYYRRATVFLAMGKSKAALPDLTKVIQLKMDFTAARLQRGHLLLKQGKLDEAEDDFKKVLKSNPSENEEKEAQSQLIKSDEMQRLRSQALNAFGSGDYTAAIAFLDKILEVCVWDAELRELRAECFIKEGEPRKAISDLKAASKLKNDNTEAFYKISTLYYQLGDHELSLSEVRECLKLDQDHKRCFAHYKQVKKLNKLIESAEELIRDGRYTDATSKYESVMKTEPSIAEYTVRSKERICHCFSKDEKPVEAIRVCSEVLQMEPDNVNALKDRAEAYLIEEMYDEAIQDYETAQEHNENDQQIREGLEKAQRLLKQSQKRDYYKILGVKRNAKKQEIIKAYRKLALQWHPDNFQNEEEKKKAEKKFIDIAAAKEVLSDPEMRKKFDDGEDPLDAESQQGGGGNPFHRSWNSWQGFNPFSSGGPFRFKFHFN

FUBP3 (human), sequence (Q96I24 2-572 limits assumed): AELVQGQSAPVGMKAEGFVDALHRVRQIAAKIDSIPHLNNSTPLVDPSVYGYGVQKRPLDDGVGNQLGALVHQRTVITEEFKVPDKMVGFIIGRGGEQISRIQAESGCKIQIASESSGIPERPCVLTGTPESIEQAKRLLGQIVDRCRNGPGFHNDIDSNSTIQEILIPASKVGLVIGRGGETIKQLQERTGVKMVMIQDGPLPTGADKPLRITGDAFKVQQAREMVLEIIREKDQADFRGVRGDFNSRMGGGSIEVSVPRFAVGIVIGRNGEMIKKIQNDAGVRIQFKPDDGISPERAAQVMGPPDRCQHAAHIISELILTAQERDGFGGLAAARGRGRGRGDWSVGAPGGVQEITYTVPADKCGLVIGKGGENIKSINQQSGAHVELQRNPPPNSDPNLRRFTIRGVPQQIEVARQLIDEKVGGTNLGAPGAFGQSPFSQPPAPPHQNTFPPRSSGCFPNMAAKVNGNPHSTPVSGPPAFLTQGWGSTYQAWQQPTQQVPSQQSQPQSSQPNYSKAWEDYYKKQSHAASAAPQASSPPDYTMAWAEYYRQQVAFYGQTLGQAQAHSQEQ
ERLIN2 (human), sequence (O94905 whole entry): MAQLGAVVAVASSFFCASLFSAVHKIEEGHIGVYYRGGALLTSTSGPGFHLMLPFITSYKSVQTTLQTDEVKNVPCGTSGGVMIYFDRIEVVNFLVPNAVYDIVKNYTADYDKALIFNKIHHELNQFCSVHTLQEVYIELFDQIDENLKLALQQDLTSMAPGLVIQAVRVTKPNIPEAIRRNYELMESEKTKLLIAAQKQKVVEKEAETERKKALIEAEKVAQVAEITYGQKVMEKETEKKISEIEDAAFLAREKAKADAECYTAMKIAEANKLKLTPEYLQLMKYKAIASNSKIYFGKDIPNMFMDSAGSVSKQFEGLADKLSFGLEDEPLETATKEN
PRDX2 (human), sequence (P32119 2-198 limits assumed): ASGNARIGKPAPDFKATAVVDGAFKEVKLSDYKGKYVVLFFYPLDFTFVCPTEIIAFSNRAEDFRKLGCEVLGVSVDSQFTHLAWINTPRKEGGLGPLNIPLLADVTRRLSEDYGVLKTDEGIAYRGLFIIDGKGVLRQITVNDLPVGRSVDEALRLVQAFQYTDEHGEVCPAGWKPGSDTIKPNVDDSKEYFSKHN
ERLIN1 (human), sequence (O75477 whole entry): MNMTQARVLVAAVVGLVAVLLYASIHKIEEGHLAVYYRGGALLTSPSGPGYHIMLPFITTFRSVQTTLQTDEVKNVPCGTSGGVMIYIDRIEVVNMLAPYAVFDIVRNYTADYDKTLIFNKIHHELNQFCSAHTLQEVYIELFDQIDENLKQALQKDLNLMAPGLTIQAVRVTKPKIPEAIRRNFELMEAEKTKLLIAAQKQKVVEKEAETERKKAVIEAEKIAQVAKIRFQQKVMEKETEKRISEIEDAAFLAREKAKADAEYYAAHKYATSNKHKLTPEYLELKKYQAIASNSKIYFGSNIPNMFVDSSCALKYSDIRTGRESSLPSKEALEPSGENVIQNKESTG
CKAP4 (human), sequence (Q07065 whole entry): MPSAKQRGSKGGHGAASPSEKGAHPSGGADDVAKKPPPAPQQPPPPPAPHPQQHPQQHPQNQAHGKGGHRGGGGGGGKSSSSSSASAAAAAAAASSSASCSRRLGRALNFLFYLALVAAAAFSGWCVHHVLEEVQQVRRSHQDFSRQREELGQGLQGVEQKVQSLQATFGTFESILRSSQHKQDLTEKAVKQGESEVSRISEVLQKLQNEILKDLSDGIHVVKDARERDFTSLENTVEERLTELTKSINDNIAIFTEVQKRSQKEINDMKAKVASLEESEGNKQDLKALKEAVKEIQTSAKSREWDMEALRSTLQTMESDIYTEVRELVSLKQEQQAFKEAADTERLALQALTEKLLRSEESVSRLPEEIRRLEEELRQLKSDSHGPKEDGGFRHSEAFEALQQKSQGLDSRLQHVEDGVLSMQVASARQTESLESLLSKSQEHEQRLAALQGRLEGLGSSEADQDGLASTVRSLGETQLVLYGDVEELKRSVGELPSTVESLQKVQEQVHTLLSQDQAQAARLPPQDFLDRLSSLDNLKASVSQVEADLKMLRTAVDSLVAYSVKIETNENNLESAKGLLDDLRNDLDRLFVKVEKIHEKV
RBM39 (human), sequence (Q14498 other isoform, or with tags, fused parts or gaps limits assumed): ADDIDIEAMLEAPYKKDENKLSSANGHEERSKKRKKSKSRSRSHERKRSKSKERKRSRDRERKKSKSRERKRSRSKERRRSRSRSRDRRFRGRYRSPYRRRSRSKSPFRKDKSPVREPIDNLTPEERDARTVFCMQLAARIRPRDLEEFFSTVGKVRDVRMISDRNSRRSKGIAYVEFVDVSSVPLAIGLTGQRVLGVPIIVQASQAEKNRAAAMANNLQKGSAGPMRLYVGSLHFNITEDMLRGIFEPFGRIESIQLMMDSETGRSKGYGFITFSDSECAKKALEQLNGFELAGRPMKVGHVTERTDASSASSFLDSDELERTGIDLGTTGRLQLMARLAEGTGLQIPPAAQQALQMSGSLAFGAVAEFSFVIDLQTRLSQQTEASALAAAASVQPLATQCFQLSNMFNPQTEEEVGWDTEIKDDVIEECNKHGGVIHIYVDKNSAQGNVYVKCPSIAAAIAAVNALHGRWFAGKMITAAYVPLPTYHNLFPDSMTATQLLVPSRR
FAM3C (human), sequence (Q92520 25-227 limits assumed): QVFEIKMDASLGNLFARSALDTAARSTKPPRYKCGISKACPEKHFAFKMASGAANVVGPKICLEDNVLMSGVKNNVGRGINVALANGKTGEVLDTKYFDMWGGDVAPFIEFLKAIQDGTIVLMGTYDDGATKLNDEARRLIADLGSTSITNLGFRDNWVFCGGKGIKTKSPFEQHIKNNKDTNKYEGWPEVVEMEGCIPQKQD
UQCRC2 (human), sequence (P22695 15-453 limits assumed): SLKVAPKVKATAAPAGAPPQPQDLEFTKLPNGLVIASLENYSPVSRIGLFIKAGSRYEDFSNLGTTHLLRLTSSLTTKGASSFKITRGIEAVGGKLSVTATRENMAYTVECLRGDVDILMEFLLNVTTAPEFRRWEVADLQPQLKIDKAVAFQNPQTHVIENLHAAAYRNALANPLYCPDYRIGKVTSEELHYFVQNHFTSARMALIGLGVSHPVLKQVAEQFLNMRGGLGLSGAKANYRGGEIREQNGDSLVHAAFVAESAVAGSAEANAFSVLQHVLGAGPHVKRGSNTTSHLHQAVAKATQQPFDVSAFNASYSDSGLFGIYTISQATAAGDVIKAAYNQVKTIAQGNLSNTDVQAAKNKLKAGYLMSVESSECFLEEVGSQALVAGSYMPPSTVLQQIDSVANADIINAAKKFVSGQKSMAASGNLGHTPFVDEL
HNRNPA2B1 (human), sequence (P22626 other isoform, or with tags, fused parts or gaps limits assumed): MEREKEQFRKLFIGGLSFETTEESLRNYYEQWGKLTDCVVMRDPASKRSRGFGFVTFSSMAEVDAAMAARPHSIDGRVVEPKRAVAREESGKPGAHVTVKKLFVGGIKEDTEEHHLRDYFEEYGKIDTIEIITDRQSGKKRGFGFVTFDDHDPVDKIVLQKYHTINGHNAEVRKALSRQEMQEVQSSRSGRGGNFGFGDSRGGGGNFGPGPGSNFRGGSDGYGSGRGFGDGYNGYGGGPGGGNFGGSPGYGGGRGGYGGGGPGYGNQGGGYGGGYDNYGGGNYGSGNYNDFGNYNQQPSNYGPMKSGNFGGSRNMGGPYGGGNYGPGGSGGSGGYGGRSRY
PDIA6 (human), sequence (Q15084 20-440 limits assumed): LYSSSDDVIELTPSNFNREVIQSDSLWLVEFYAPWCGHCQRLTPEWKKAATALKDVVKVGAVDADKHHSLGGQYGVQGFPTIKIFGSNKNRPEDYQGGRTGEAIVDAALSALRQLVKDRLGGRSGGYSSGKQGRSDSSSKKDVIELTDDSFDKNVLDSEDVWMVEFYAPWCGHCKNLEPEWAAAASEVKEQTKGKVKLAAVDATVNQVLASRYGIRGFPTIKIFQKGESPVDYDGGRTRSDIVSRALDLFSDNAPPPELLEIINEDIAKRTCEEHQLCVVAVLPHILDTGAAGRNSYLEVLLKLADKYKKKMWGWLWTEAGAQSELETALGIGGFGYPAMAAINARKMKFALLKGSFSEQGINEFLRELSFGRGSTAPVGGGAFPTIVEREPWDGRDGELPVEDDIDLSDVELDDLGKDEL
CALU (human), sequence (O43852 20-315 limits assumed): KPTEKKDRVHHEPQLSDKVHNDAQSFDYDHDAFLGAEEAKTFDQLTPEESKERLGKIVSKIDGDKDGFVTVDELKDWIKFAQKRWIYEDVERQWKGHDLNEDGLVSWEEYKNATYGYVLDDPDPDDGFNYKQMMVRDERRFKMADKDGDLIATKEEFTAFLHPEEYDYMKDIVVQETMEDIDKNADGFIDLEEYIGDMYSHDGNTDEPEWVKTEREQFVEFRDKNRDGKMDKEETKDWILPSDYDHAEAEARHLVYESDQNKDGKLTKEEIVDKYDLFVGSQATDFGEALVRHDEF

In the case of “C-terminal FLAG tagged B3GNT2 (from UniProt Q9NY97 1-397) (enzyme)”, the co-IP mass spectrometry count in the experiment with RPL30 (human) came to 14; in the experiment with FAM3C (human) it was 23; with FKBP10 (human) it was 16; with SQSTM1 (human), 43; in the experiment with IPO4 (human), 17; with DNAJA1 (human) it was 10. Besides, the co-IP mass spectrometry count in the experiment with HSD17B12 (human) came to 10; in the experiment with PRDX1 (human) it was 6; with RPS9 (human) it was 6; with ERLIN2 (human) it was 9; in the experiment with CAPZB (human) it was 5; in the experiment with ERLIN1 (human), 9. Further, the co-IP mass spectrometry count with ATP1A1 (human) is 12; with RPS5 (human), 6; in the experiment with RPS3A (human), 29; with RPL24 (human), 14; with RPS15 (human), 11; in the experiment with GCN1 (human), 4. Further, the co-IP mass spectrometry count with CALU (human) was 13; with CASP14 (human) it was 9; in the experiment with RPL23A (human) it was 10; in the experiment with PRDX2 (human) it was 5; in the experiment with RPL12 (human), 11; in the experiment with RPL14 (human), 21. In addition, the co-IP mass spectrometry count stood at 14 in the experiment with CKAP4 (human), 4 in the experiment with UQCRC2 (human), 14 with PDIA6 (human) and 10 with RPLPO (human).

Turning to “IgG control (Millipore Sigma 12-371) (antibody)”, the co-IP mass spectrometry count is 0 with EIF5B (human); 295 in the experiment with KRT6B (human); 7 with FUBP3 (human); 0 in the experiment with HADHB (human); 3 in the experiment with ATXN2 (human); 0 with KRT4 (human). Besides, the co-IP mass spectrometry count worked out at 3 in the experiment with RBM39 (human), 9 with HNRNPA2B1 (human) and 0 in the experiment with DNAJC3 (human).
